According to patent US8198021:

How the values were obtained:
[1] = test system: microcin J25
[2] = target: Escherichia coli RNA polymerase (RNAP) holoenzyme (Escherichia coli) (UniProt P0A7Z4); experiment: transcription assay at four NTP concentrations, fit to partial-competitive inhibition (7-mer and 8-mer abortive products); Ki called the reciprocal of the equilibrium binding constant for the MccJ25-RNAP interaction
[3] = target: Escherichia coli RNA polymerase (RNAP) holoenzyme (Escherichia coli) (UniProt P0A7Z4); experiment: fluorescence-detected abortive initiation assay (tri- and tetranucleotide synthesis), fit to partial-competitive inhibition

“Escherichia coli RNA polymerase (RNAP) holoenzyme” was tested, and the α, the factor by which MccJ25 increases KM for NTPs (7-mer and 8-mer abortive products) [1] was 15 and the “α, the factor by which MccJ25 increases KM for NTPs (fluorescence-detected abortive initiation, tri- and tetranucleotide synthesis)” value [1] was “α 8.7±2”.
Substance microcin J25 (peptide) has a Ki [2] of 1400 nM and a Ki [3] of 1200 nM.
